Test results as given in article PMC2885190 (The Journal of Biological Chemistry, 2010).

How the values were obtained:
[1] = target: T1, Recombinant gp120 from HIV-1 IIIB (HIV-1 IIIB, UniProt P04578); test: cell-based or functional assay
[2] = target: T1, Recombinant gp120 from HIV-1 IIIB; test: SPR

B1: A12 mutant 1 (Tyr101 to Ala101) (VHH)
VHH: AVQLVESGGGLVQAGGSLRLSCTASGRISSSYDMGWFRQAPGKEREFVAAISWSGGTTDYADSVKGRFAISKDNAKNAVSLQMNSLKPEDTAVYYCAAKWRPLRYSDYPSNSDYADWGQGTQVTVSS
- neutralisation of HIV-1 IIIB, TZM-bl luciferase assay, IC50 [1]: < 1 µg/mL

B2: A12 mutant 3 (Tyr101 to Gln101) (VHH)
VHH: AVQLVESGGGLVQAGGSLRLSCTASGRISSSYDMGWFRQAPGKEREFVAAISWSGGTTDYADSVKGRFAISKDNAKNAVSLQMNSLKPEDTAVYYCAAKWRPLRYSDYPSNSDYQDWGQGTQVTVSS
- neutralisation of HIV-1 IIIB, TZM-bl luciferase assay, IC50 [1]: < 1 µg/mL

B3: mutant 7 of A12/D7 (VHH)
VHH: AVQLVESGGGLAQAGGSLRLSCTVSGRTSSSHDMGWFRQAPGKEREFVAAISWSGGTTNYADSVKGRFAISKDNAKNAVSLQMNSLKPEDTAVYYCAAKWRPLRYSDNPSNSDYNDWGQGTQVTVSS
- neutralisation of HIV-1 IIIB, TZM-bl luciferase assay, IC50 [1]: < 1 µg/mL

B4: A12 mutant 2 (Tyr101 to Asn101) (VHH)
VHH: AVQLVESGGGLVQAGGSLRLSCTASGRISSSYDMGWFRQAPGKEREFVAAISWSGGTTDYADSVKGRFAISKDNAKNAVSLQMNSLKPEDTAVYYCAAKWRPLRYSDYPSNSDYNDWGQGTQVTVSS
- neutralisation of HIV-1 IIIB, TZM-bl luciferase assay, IC50 [1]: < 1 µg/mL

B5: A12 VHH (VHH)
VHH: AVQLVESGGGLVQAGGSLRLSCTASGRISSSYDMGWFRQAPGKEREFVAAISWSGGTTDYADSVKGRFAISKDNAKNAVSLQMNSLKPEDTAVYYCAAKWRPLRYSDYPSNSDYYDWGQGTQVTVSS
- Kd [2]: 0.1 nM
- koff [2]: 2.98e-05 s⁻¹
- kon [2]: 273000 M⁻¹ s⁻¹

B6: D7 VHH (VHH)
VHH: AVQLVESGGGLAQAGGSLRLSCTVSGRTSSSHDMGWFRQAPGKEREFVAAISWSGGTTNYADSVKGRFAISKDNAKNAVSLQMNSLKPEDTAVYYCAAKWRPLRYSDNPSNSDYNYWGQGTQVTVSS
- Kd [2]: 2.9 nM
- koff [2]: 0.000551 s⁻¹
- kon [2]: 155000 M⁻¹ s⁻¹
